This is an account of results in ChEMBL document CHEMBL2073879, “Human monocarboxylate transporter 2 (MCT2) is a high affinity pyruvate transporter” (J Biol Chem, 1998).

Substrate in data set [1]: CC(=O)C(=O)O
The data set can be described thus: (§1) TP_TRANSPORTER: uptake in Xenopus laevis oocytes. It is filed as functional, cell-based. The note with it: Oocyte.

Substrate in data set [2]: CC(O)C(=O)[O-].[Na+]
The data set is described as §1. The note with it: Oocyte. It is filed as functional, cell-based.

In general, Km refers to the concentration of substrate that gives half-maximal velocity.

B1: Monocarboxylate transporter 2 (Homo sapiens), O60669 (protein)
chain: MPPMPSAPPVHPPPDGGWGWIVVGAAFISIGFSYAFPKAVTVFFKEIQQIFHTTYSEIAWISSIMLAVMYAGGPVSSVLVNKYGSRPVVIAGGLLCCLGMVLASFSSSVVQLYLTMGFITGLGLAFNLQPALTIIGKYFYRKRPMANGLAMAGSPVFLSSLAPFNQYLFNTFGWKGSFLILGSLLLNACVAGSLMRPLGPNQTTSKSKNKTGKTEDDSSPKKIKTKKSTWEKVNKYLDFSLFKHRGFLIYLSGNVIMFLGFFAPIIFLAPYAKDQGIDEYSAAFLLSVMAFVDMFARPSVGLIANSKYIRPRIQYFFSFAIMFNGVCHLLCPLAQDYTSLVLYAVFFGLGFGSVSSVLFETLMDLVGAPRFSSAVGLVTIVECGPVLLGPPLAGKLVDLTGEYKYMYMSCGAIVVAASVWLLIGNAINYRLLAKERKEENARQKTRESEPLSKSKHSEDVNVKVSNAQSVTSERETNI
Turning to B1, the Km in data set [1] worked out at 0.025 mM; in data set [2], 6.5 mM.

B2: Monocarboxylate transporter 1 (Rattus norvegicus), P53987 (protein)
chain: MPPAIGGPVGYTPPDGGWGWAVVVGAFISIGFSYAFPKSITVFFKEIEIIFSATTSEVSWISSIMLAVMYAGGPISSILVNKYGSRPVMIAGGCLSGCGLIAASFCNTVQELYFCIGVIGGLGLAFNLNPALTMIGKYFYKKRPLANGLAMAGSPVFLSTLAPLNQAFFGIFGWRGSFLILGGLLLNCCVAGSLMRPIGPQQGKVEKLKSKESLQEAGKSDANTDLIGGSPKGEKLSVFQTVNKFLDLSLFTHRGFLLYLSGNVVMFFGLFTPLVFLSNYGKSKHFSSEKSAFLLSILAFVDMVARPSMGLAANTRWIRPRVQYFFAASVVANGVCHLLAPLSTTYVGFCIYAGVFGFAFGWLSSVLFETLMDLVGPQRFSSAVGLVTIVECCPVLLGPPLLGRLNDMYGDYKYTYWACGVILIIAGLYLFIGMGINYRLVAKEQKAEEKKRDGKEDETSTDVDEKPKKTMKETQSPAPLQNSSGDPAEEESPV
Turning to B2, the Km turned out to be 2.5 mM in data set [1] and 6 mM in data set [2].
